± gives the standard error. Variants at the floor of the assay were thinned out.
B1: glmS ribozyme (parent)
chain: AUAAAAGCGCCAGAACUACAGAAAUGUAGUUGACGAGGAGGAGGUUUAUCGAAUUUUCGGCGGAUGCCUCCAAA

Variants of: B1
Test: self-cleavage kobs at 2500 uM GlcN6P; higher = faster cleavage; RNA array
Conditions: with glucosamine-6-phosphate
In short: (§1)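 kcat and KM were obtained from weighted Michaelis–Menten fits across concentrations of kobs values. Those came from one- or two-exponential decay fits to per-tile medians normalised to baseline and to non-cleaving reference variants. The variants were barcoded ribozymes transcribed in situ by E. coli RNA polymerase on sequenced MiSeq chips and tracked through a hybridised Cy3 probe at 37 °C, with 40 μM to 10 mM glucosamine-6-phosphate in HEPES/KCl/Mg(OAc)2 buffer flowed in.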

Variant	self-cleavage kobs at 2500 uM GlcN6P
G13A A36G C58G C68G	0.000157 ± 5.4e-05 s⁻¹
U31A G35C A39U C67A C70U	< 1e-05 s⁻¹
G41C A42G U55A	9.68e-05 ± 2.6e-05 s⁻¹
C10A G60C G63C C67A C68G C70G C71U	4.85e-05 ± 2.2e-05 s⁻¹
G37A U49A A52G	< 1e-05 s⁻¹
A39G G40U U54A	0.000126 ± 6.2e-05 s⁻¹
G35A U56A C68G	< 1e-05 s⁻¹
G38U U65A C70G	0.000107 ± 3.6e-05 s⁻¹
A6G A52G G62C	< 1e-05 s⁻¹
G7C A15U U31C	< 1e-05 s⁻¹
A33G G44U G63U	< 1e-05 s⁻¹
C8A C16U A36C A42U	< 1e-05 s⁻¹
A6G C11A U49G	< 1e-05 s⁻¹
A6G U31A U49A	< 1e-05 s⁻¹
U31C G37A G59A C61U G66A	< 1e-05 s⁻¹
C16G G40U U55A G60U	0.000989 ± 0.00047 s⁻¹
C11G G51A A64C	< 1e-05 s⁻¹
C10G U47G G51A	< 1e-05 s⁻¹
G7U U31G C61A C70A	< 1e-05 s⁻¹
A6G G40U A52G A53U	< 1e-05 s⁻¹
C16A G37U G41A	< 1e-05 s⁻¹
G13U A15U C71U	5.99e-05 ± 2.5e-05 s⁻¹
G51U A52U U54G U55C	< 1e-05 s⁻¹
A14G G41A G60U	< 1e-05 s⁻¹
C50U C70U C71A	0.000152 ± 4e-05 s⁻¹
U31G A39U A64C	6.17e-05 ± 2.3e-05 s⁻¹

Variant	self-cleavage kobs at 2500 uM GlcN6P
A15G G44U A64U U65G	< 1e-05 s⁻¹
A12G A64U C67G	< 1e-05 s⁻¹
G37A A39G C71G	0.000523 ± 0.00013 s⁻¹
U30C G66A C67G	4.46e-05 ± 1.2e-05 s⁻¹
C10U C11U G13C A42U U54A	< 1e-05 s⁻¹
C8A C16U A33U C68U	< 1e-05 s⁻¹
G40U G41A C67A C70U	0.000143 ± 3.7e-05 s⁻¹
A15C C16G U31A A53G C58A	4.06e-05 ± 1.5e-05 s⁻¹
A39U A42U U47A	0.0025 ± 0.0012 s⁻¹
A6C C8G A14C A48C	< 1e-05 s⁻¹
C8A C16G G38A A64G C68A	< 1e-05 s⁻¹
G37C U45A G60U A64C	< 1e-05 s⁻¹
U46G C50G C68G	4.12e-05 ± 2e-05 s⁻¹
G29U G32C A53G C70U	6e-05 ± 1.4e-05 s⁻¹
A6G C16G U54C C61A	< 1e-05 s⁻¹
C11U C34A G44A	< 1e-05 s⁻¹
A12C U56A C58G	0.00043 ± 8.1e-05 s⁻¹
C11A A33G G35U A52G	< 1e-05 s⁻¹
G29C G62C U65A	< 1e-05 s⁻¹
A39C U45A C50G C70G	< 1e-05 s⁻¹
C34U A39C G59A	< 1e-05 s⁻¹
G29U U46A U56A G62U C68U	< 1e-05 s⁻¹
G7U G43A U47G U56G	< 1e-05 s⁻¹
A6U U47A U57C	< 1e-05 s⁻¹
A5U C10G A42U U57C C70A	< 1e-05 s⁻¹
A15C G66U C67G	4.27e-05 ± 1.7e-05 s⁻¹

Variant	self-cleavage kobs at 2500 uM GlcN6P
U31G C58A C67G	6.38e-05 ± 2e-05 s⁻¹
A15C A42G U56A G60U	< 1e-05 s⁻¹
A12G G62A U69A C70A	0.000135 ± 5.1e-05 s⁻¹
G9C A15C G44A G60U C61G	< 1e-05 s⁻¹
A39U U56C C67G	3.66e-05 ± 9.2e-06 s⁻¹
G43A G62C A64U C70G	< 1e-05 s⁻¹
C10U A33U G41U U49C G62C	< 1e-05 s⁻¹
A39U G60A U65G	< 1e-05 s⁻¹
U31G G32C G66A	0.000109 ± 2.1e-05 s⁻¹
C8U C34U G37A U54C	< 1e-05 s⁻¹
A6G U30C C34U	< 1e-05 s⁻¹
A14U A33U A53C G63U	< 1e-05 s⁻¹
A12C C50G C70A	0.000246 ± 5.7e-05 s⁻¹
A12U A39U A48U	0.000147 ± 2.7e-05 s⁻¹
A33C C68G C70U	< 1e-05 s⁻¹
C8A C58A G59C	< 1e-05 s⁻¹
G29C G63C	< 1e-05 s⁻¹
C8A A15G G32U G44U C67A	< 1e-05 s⁻¹
G7U C11G G13A A14U G32U A33C G37A G40A U47C	< 1e-05 s⁻¹
A14U U45G G60U	< 1e-05 s⁻¹
C10U U45A	2.72e-05 ± 1.3e-05 s⁻¹
G13A G35A A42U	< 1e-05 s⁻¹
G44U U45G C70U	0.000791 ± 0.00023 s⁻¹
U30G U31A G35A A39G G51C G59A	< 1e-05 s⁻¹
A6C G41U C58U C68U	< 1e-05 s⁻¹
C16U G29C U55A	0.00365 ± 0.00064 s⁻¹

Variants of: B1
Test: self-cleavage kobs at 10000 uM GlcN6P; higher = faster cleavage; RNA array
Conditions: with glucosamine-6-phosphate
In short: as §1

Variant	self-cleavage kobs at 10000 uM GlcN6P
G37A U49A A52G	< 1e-05 s⁻¹
U31C G37A G59A C61U G66A	< 1e-05 s⁻¹
U31G A39U A64C	4.91e-05 ± 1.3e-05 s⁻¹
A12G A64U C67G	< 1e-05 s⁻¹
A39U A42U U47A	0.00362 ± 0.0011 s⁻¹
C11A A33G G35U A52G	< 1e-05 s⁻¹
A15C G66U C67G	0.000165 ± 4.9e-05 s⁻¹
A39U G60A U65G	< 1e-05 s⁻¹
C8A A15G G32U G44U C67A	< 1e-05 s⁻¹
C10U U45A	2.12e-05 ± 8.6e-06 s⁻¹

From the supplement of paper PMC7125110
